Biological target: OB-Rb, full-length (long isoform) leptin receptor expressed on transfected GT1-7 cells (mouse), P48356
Assay: cell-based or functional assay

Sequence of OB-Rb, full-length (long isoform) leptin receptor expressed on transfected GT1-7 cells (mouse), P48356 (P48356 22-1162): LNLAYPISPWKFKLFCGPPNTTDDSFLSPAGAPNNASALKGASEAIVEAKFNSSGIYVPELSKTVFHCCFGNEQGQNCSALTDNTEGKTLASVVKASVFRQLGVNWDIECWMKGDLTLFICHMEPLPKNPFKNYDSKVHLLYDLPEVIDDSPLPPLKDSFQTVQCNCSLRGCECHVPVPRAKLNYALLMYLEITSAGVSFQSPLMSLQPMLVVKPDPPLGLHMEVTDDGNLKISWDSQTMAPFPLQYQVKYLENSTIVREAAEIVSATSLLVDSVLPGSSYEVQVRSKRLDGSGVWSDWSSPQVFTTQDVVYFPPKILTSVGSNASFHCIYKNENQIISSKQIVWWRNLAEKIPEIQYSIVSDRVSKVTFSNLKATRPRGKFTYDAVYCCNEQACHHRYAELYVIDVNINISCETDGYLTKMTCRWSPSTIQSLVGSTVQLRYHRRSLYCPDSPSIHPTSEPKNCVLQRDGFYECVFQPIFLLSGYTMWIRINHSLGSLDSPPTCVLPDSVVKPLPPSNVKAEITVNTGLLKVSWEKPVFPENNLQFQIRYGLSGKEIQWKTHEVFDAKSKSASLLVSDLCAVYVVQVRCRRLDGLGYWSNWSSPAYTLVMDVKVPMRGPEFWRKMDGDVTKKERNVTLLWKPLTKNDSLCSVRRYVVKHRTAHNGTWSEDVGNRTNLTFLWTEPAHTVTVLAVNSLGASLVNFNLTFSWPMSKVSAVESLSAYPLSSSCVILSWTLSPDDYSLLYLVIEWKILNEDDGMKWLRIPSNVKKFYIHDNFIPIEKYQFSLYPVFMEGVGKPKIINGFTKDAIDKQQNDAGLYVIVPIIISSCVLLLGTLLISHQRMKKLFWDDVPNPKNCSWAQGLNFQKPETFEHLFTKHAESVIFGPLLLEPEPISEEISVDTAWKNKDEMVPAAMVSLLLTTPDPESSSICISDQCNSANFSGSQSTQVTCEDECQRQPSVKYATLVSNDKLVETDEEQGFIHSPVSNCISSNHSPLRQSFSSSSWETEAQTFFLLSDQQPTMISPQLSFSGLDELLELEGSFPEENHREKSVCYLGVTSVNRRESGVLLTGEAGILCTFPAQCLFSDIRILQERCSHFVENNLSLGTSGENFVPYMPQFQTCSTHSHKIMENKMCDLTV

- SEAP activity (HRRE-SEAP reporter in GT1-7 cells): 11 fold
B1: recombinant mouse leptin, P41160 22-167 (ligand)
chain: VPIQKVQDDTKTLIKTIVTRINDISHTQSVSAKQRVTGLDFIPGLHPILSLSKMDQTLAVYQQVLTSLPSQNVLQIANDLENLRDLLHLLAFSKSCSLPQTSGLQKPESLDGVLEASLYSTEVVALSRLQGSLQDILQQLDVSPEC
